Laboratory results reported in publication PMC4442680, “Crystal structure of human nicotinic acid phosphoribosyltransferase” (FEBS Open Bio, 2015).

Biological target: the molecule itself
Assay: crystal structure; ligand-free enzyme; sitting drops, 15 mg/mL protein preincubated with 1 mM Acetyl-CoA and 5 mM DTT, 0.1 M Sodium cacodylate pH 6.5, 1.7 M Sodium acetate, 4 °C; P212121, two molecules per asymmetric unit; 2.9 Å

B1: human nicotinic acid phosphoribosyltransferase (enzyme, UniProt Q6XQN6 1-538, looked up)
chain: MAAEQDPEARAAARPLLTDLYQATMALGYWRAGRARDAAEFELFFRRCPFGGAFALAAGLRDCVRFLRAFRLRDADVQFLASVLPPDTDPAFFEHLRALDCSEVTVRALPEGSLAFPGVPLLQVSGPLLVVQLLETPLLCLVSYASLVATNAARLRLIAGPEKRLLEMGLRRAQGPDGGLTASTYSYLGGFDSSSNVLAGQLRGVPVAGTLAHSFVTSFSGSEVPPDPMLAPAAGEGPGVDLAAKAQVWLEQVCAHLGLGVQEPHPGERAAFVAYALAFPRAFQGLLDTYSVWRSGLPNFLAVALALGELGYRAVGVRLDSGDLLQQAQEIRKVFRAAAAQFQVPWLESVLIVVSNNIDEEALARLAQEGSEVNVIGIGTSVVTCPQQPSLGGVYKLVAVGGQPRMKLTEDPEKQTLPGSKAAFRLLGSDGSPLMDMLQLAEEPVPQAGQELRVWPPGAQEPCTVRPAQVEPLLRLCLQQGQLCEPLPSLAESRALAQLSLSRLSPEHRRLRSPAQYQVVLSERLQALVNSLCAGQSP
notes: human nicotinic acid phosphoribosyltransferase (EC 2.4.2.11); also called human NaPRTase; hNaPRTase
- stoichiometry N: 2
